T1: human PVRIG-his (AcroBiosystems, Cat NO. PVG-H52H4) (human, UniProt Q6DKI7 41-171, limits assumed)
T1 construct: Bought reagent; also called human PVRIG protein
T1 sequence (looked up): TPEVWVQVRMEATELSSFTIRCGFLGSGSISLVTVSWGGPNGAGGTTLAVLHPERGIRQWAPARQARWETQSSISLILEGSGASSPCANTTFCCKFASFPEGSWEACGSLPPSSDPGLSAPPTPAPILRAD

T2: cynomolgus monkey PVRIG (Novoprotein, Cat NO. C09B) (cynomolgus monkey, UniProt A0A2K5WVV8 41-171)
T2 construct: Bought reagent; also called cynomolgus monkey PVRIG protein
T2 sequence: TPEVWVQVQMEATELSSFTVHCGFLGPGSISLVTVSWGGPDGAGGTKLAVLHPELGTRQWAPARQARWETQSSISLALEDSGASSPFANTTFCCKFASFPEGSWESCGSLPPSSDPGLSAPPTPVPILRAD

T3: human PVRIG on FlpinCHO-PVRIG cells (human, UniProt Q6DKI7 41-326)
T3 construct: whole, on cells
T3 sequence (looked up): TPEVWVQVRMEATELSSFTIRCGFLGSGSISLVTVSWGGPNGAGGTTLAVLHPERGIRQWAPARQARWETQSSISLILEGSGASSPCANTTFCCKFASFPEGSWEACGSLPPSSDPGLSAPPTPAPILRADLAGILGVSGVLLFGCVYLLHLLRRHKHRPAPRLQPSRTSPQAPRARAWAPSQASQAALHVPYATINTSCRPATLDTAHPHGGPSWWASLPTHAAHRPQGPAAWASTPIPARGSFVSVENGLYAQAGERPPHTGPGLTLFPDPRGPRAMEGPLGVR

T4: cynomolgus monkey PVRIG on FlpinCHO-cyno PVRIG cells (cynomolgus monkey, UniProt A0A2K5WVV8 41-322)
T4 construct: whole, on cells
T4 sequence: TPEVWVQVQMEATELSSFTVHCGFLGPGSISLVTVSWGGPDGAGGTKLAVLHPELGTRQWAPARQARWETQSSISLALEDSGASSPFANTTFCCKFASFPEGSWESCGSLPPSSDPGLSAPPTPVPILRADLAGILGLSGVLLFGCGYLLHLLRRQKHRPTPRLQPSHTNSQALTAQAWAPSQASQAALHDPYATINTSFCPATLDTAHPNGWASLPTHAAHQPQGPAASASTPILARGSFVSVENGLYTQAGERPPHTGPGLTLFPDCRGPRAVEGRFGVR

T5: Fusion protein of extracellular domain of human TIGIT and His-tag (human TIGIT ECD-his) (human)
T5 chain: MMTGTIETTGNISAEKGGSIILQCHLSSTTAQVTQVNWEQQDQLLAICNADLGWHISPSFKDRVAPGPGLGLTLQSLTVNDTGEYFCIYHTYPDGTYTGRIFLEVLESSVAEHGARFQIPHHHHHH

T6: Fusion protein of extracellular domain of human TIGIT and mouse IgG2a Fc fragment (human TIGIT ECD-mFc) (human)
T6 construct: The entry includes the signal peptide (limits not recoverable) and the mouse IgG2a Fc
T6 chain: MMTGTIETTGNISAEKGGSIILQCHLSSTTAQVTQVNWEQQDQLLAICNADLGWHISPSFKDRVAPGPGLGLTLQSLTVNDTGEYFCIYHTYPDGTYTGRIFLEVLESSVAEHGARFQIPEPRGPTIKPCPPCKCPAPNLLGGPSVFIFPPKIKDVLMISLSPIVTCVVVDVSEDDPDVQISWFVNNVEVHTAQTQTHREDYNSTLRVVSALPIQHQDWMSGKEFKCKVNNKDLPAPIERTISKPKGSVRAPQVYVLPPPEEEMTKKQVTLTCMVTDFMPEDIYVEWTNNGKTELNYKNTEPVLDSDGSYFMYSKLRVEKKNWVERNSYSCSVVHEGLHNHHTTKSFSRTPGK

T7: Full-length human TIGIT on CHO-K1 cells (CHO-K1 human TIGIT) (human, UniProt Q495A1 22-244)
T7 construct: NCBI XP_024309156.1; the entry includes the signal peptide (limits not recoverable); The strain (high, medium, low) is named under assay; also called high expression strain 1D2; medium expression strain 2D10
T7 sequence: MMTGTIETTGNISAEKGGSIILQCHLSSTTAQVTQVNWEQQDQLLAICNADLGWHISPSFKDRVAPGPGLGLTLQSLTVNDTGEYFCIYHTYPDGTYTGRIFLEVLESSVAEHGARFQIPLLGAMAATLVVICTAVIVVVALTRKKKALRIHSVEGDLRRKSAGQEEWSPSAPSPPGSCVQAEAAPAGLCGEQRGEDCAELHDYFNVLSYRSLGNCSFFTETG


How the values were obtained:
[1] = target: T1, human PVRIG-his (AcroBiosystems, Cat …); experiment: ELISA, coated human PVRIG-his
Procedure: (§1) The ELISA plate was pre-coated with 100 μL/well of 0.5 μg/mL human PVRIG-his (AcroBiosystems, Cat NO. PVG-H52H4) or cynomolgus monkey PVRIG (Novoprotein, Cat NO. C09B). […] A HRP substrate, TMB (Thermo, Cat NO. 34029) was added into wells after washing the plate again for color development. After adding a termination solution to terminate the reaction, the absorbance value was read by a microplate reader (MD i3×). An antibody binding curve was drawn with concentration of antibodies as the abscissa and the corresponding OD value as the ordinate. The EC50 value was calculated by using a Four Parameter Logistic Fit (GraphPadPrism9). The smaller the EC50 value, the stronger the ability of the antibodies binds to human or cynomolgus monkey PVRIG. The positive control antibodies are COM701-hIgG1 (Patent No.:US20180244774A1), COM701-hIgG4 (patent No.: US20180244774A1) and SRF813-hIgG1 (Patent No.:US20200040081A1); and the negative control antibodies are anti-HA HcAb-hIgG1 (Chengdu NB Biolab, Cat NO. NBR022), anti-CD38 HcAb-hIgG1 (in-house) and anti-Fluorescein-hIgG1 (in house).

[2] = target: T2, cynomolgus monkey PVRIG (Novoprotein, …); experiment: ELISA, coated cynomolgus monkey PVRIG
Procedure: as §1

[3] = target: T3, human PVRIG on FlpinCHO-PVRIG cells; experiment: FACS, FlpinCHO-PVRIG cells; AUC of MFI curve relative to COM701-hIgG1
Procedure: (§2) The Ham's F12 (Gibico, 21127-022) complete medium containing 10% FBS was then added to terminate the digestion and acquire cell suspension. After counting with a cell counter (Beckman Coulter, Vi-CELL), an appropriate amount of cell suspension was centrifuged at 350×g to remove the supernatant, washed twice with PBS, stained with Zombie violet (Biolegend, 423114) and incubated at room temperature for 20 minutes. After incubation, the cells were added with staining buffer (2% FBS+PBS) to stop staining, centrifuged at 350×g to remove the supernatant, washed twice and resuspended with staining buffer to a density of 2×10⁶ cells/mL. The cells were plated into a 96-well plate (50 μL of cell suspension per well) for further use. The antibodies were diluted from the highest concentration of 46 nM (two-fold concentration) with staining buffer by 3.3-fold serial dilution. The diluted antibodies were added to the well containing 50 μL of cell suspension. The plate was placed on a microplate shaker at 400 rpm for 1 minute to fully mix the antibodies and cells, and then incubated at 4° C. for 30 minutes. After the incubation, the cells were washed twice with staining buffer (200 μL per well) and centrifuged at 350×g for 5 minutes to discard the supernatant. The PE goat anti-human IgG Fc antibody (ebioscience, 12-4998-82) was diluted 250 times with staining buffer, added into the washed wells (100 μL per well), mixed well, and stained at 4° C. for 30 minutes. After staining, the cells were washed twice with staining buffer, finally resuspended with 200 μL staining buffer and analyzed by flow cytometry (BD, Canto II). The stronger the signal, the stronger the ability of the antibodies binds to PVRIG. An antibody binding curve was drawn with concentration of antibodies as the abscissa and the corresponding Mean Fluorescence Intensity (MFI) as the ordinate. The AUC value of the curve was calculated by using a Four Parameter Logistic Fit (GraphPadPrism9). The stronger the AUC value, the stronger the ability of the antibodies binds to FlpinCHO-PVRIG and FlpinCHO-cyno PVRIG. […] The binding activity of the antibodies was normalized to the positive control COM701-hIgG1 and SRF813-hIgG1.

[4] = target: T3, human PVRIG on FlpinCHO-PVRIG cells; experiment: FACS, FlpinCHO-PVRIG cells; AUC of MFI curve relative to SRF813-hIgG1
Procedure: as §2

[5] = target: T4, cynomolgus monkey PVRIG on …; experiment: FACS, FlpinCHO-cyno PVRIG cells; AUC of MFI curve relative to COM701-hIgG1
Procedure: as §2

[6] = target: T4, cynomolgus monkey PVRIG on …; experiment: FACS, FlpinCHO-cyno PVRIG cells; AUC of MFI curve relative to SRF813-hIgG1
Procedure: as §2

[7] = target: T5, Fusion protein of extracellular domain …; experiment: BIAcore
[8] = target: T6, Fusion protein of extracellular domain …; experiment: ELISA, human TIGIT ECD-mFc
Outline: (§3)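 Antibodies diluted to 13 nM in 1% BSA, then 3-fold serial dilution for 12 concentrations, incubated with milk-blocked plates at 37° C for 1.5-2 h. Bound antibody detected with HRP-labelled secondary antibody (1:5000, 37° C, 1 h) and TMB, stopped with 1M HCl; OD450 nm read.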

[9] = target: T5, Fusion protein of extracellular domain …; experiment: BIAcore; KD ratio to TIGIT-CHI-070
[10] = target: T8, Fusion protein of extracellular domain of cynomolgus monkey TIGIT and mouse IgG2a Fc fragment (cynomolgus … (cynomolgus monkey)); experiment: ELISA, cynomolgus monkey TIGIT ECD-mFc
T8 construct: The entry includes the signal peptide (limits not recoverable) and the mouse IgG2a Fc
Outline: as §3

[11] = target: T9, Full-length cynomolgus monkey TIGIT on CHO-K1 cells (CHO-K1 cynomolgus monkey TIGIT) (cynomolgus monkey); experiment: cell binding, CHO-K1 cynomolgus monkey TIGIT
T9 construct: NCBI XP_015300911.1
Outline: (§4)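 Binding was measured by flow cytometry after a 60-minute, 4° C incubation of the antibodies with 2×10⁵ CHO-K1 cells displaying full-length human or cynomolgus monkey TIGIT. Antibody titration: 12 points, threefold serial dilution from 80 nM, in 1% BSA-PBS.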

[12] = target: T10, Fusion protein of extracellular domain of human TIGIT and human IgG1 Fc fragment (human TIGIT ECD-hFc) (human); experiment: blocking of TIGIT ECD-hFc binding to CHO-K1 CD155 cells
T10 construct: The entry includes the signal peptide (limits not recoverable) and the human IgG1 Fc
Outline: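 Inhibition was expressed as IC50 values derived from the inhibition curves of a cell-based ELISA. CHO-K1 CD155 cells were cultured overnight, fixed, and blocked with 5% skim milk-PBS. Antibodies were first premixed for 0.5 h with human TIGIT ECD-hFc at a working concentration of 30 ng/mL, and the mixture was then added to the cells for 1.5-2 h at 37° C. Bound TIGIT was detected with HRP secondary antibody (1:5000, 37° C, 1 h) and TMB, and read as OD450 nm.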

[13] = target: T7, Full-length human TIGIT on CHO-K1 cells …; experiment: cell binding, CHO-K1 human TIGIT high expression strain
Outline: as §4

T8 sequence (chain, as listed by the source limits assumed): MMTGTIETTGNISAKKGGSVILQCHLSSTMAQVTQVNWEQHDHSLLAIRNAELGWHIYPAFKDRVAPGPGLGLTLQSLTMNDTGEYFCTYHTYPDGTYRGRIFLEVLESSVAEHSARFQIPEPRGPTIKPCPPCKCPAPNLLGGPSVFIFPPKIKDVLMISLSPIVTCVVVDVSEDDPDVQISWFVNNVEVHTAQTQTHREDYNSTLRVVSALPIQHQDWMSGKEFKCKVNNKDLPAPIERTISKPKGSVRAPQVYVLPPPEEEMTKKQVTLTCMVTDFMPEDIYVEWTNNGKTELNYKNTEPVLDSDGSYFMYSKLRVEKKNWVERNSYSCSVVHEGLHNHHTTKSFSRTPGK
T9 sequence (chain, as listed by the source limits assumed): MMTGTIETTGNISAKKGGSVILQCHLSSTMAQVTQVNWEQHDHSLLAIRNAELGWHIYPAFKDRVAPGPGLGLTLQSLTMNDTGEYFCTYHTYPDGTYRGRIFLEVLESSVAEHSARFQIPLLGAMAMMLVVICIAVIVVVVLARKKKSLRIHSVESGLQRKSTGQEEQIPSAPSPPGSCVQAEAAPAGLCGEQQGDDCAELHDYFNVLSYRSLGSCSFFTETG
T10 sequence (chain, as listed by the source limits assumed): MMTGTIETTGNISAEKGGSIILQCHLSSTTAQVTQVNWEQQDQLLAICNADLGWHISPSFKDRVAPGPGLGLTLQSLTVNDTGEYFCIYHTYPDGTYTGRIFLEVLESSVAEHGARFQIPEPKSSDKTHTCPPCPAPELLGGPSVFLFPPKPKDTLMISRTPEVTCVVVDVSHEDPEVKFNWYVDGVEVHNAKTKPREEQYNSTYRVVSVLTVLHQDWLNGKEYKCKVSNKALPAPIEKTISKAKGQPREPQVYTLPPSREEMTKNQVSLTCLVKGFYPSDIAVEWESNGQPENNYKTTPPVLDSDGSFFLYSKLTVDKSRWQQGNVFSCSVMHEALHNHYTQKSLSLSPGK

| Binder | EC50 [1] [nM] | EC50 [2] [nM] | % AUC to COM701-hIgG1 [3] [%] | % AUC to SRF813-hIgG1 [4] [%] | % AUC to COM701-hIgG1 [5] [%] | % AUC to SRF813-hIgG1 [6] [%] | Kd [7] [nM] | koff [7] [s⁻¹] | kon [7] [M⁻¹ s⁻¹] | EC50 [8] [nM] | Fold change vs chimeric antibodies (KD) [9] [fold] | EC50 [10] [nM] | EC50 [11] [nM] | IC50 [12] [nM] | EC50 [13] [nM] |
| --- | --- | --- | --- | --- | --- | --- | --- | --- | --- | --- | --- | --- | --- | --- | --- |
| PVRIG-A104 (Fc fusion, Alpaca VHH joined to human IgG1 Fc (VHH-hinge-CH2-CH3); not shown: human IgG1 hinge-CH2-CH3) EVQVVESGGGLVQAGGSLRLSCAASGRTRSMYVMGWFRQAPGKEREFVGRIKWSGDTTYTSYADFVKGRFTLYGNQARNTVYLQMNSLKPEDTAVYYCYRRSWTNTKLYWGKGIQVTVSS | 0.0659 | 0.0353 | 18.1 | 23.9 | 18.4 | 23.9 | – | – | – | – | – | – | – | – | – |
| PVRIG-A43 (Fc fusion, Alpaca VHH joined to human IgG1 Fc (VHH-hinge-CH2-CH3); not shown: human IgG1 hinge-CH2-CH3) QVQLVESGGGLVQSGGSLRLSCAASGRTRSMYVMGWFRQAPGKEREFVGRIKWSGDTTYTSYADFVKGRFTLYGNQARNTVYLQMNSLKVEDTAVYYCAGRVVPLPSRQRDRYDYWGQGTQVTVSS | 0.0537 | 0.036 | 165 | 181 | 19.6 | 25.7 | – | – | – | – | – | – | – | – | – |
| TIGIT-070-H2L1 (antibody, V domains shown, Humanized anti-TIGIT antibody) VH: EVQLVQSGAEVKKPGASVKVSCKASGYTFTNYYMHWVRQAPGQRLEWMGRIDPDSGGSKYNEKFKSRVTITVDKLSSTAYMELSSLRSEDTAVYYCAREGHYGFYSDYWGQGTTVTVSS VL: DIQMTQSPSSLSASVGDRVTITCRVSENIYSYLAWYQQKPGKSPKLLIYNAKTLAEGVPSRFSGSGSGTDFTLTISSLQPEDFATYYCQHHYGNPLTFGPGTKVDIK | – | – | – | – | – | – | 0.0808 | 0.000134 | 1.66e+06 | 0.0129 | 0.82 | 0.0124 | 0.0799 | 0.393 | 0.0236 |
| TIGIT-070-H1L2 (antibody, V domains shown, Humanized anti-TIGIT antibody) VH: EVQLVQSGAEVKKPGASVKVSCKASGYTFTNYYMHWVRQAPGQRLEWMGRIDPDSGGSKYNEKFKSRVTITVDKSASTAYMELSSLRSEDTAVYYCAREGHYGFYSDYWGQGTTVTVSS VL: DIQMTQSPSSLSASVGDRVTITCRVSENIYSYLAWYQQKPGKSPKLLVYNAKTLAEGVPSRFSGSGSGTDFTLTISSLQPEDFATYYCQHHYGNPLTFGPGTKVDIK | – | – | – | – | – | – | 0.0883 | 0.000148 | 1.67e+06 | 0.0118 | 0.9 | 0.0116 | 0.0879 | 0.421 | 0.0272 |
